Patent US20130295106A1 (ONCOMED PHARMACEUTICALS, published 2013)

Key:
[1] = target: T1, recombinant FZD2 Fc protein (Biacore) (Homo sapiens (Human), UniProt Q14332 24-250, limits assumed); assay: SPR, Biacore 2000; Fzd Fc immobilized on CM5 chip, IgG 100 to 0.78 nM in solution
T1 construct: also called Fzd Fc; not shown: Fc part, not described
Experimental: (§1) The KDs of 18R8 and 18R5 antibodies were determined using the Biacore 2000 system from Biacore Lifescience (GE Healthcare). Specifically, purified anti-Fzd7 antibodies were serially diluted in 2-fold increments from 100 to 0.78 nM in HBS-P (0.01 M HEPES pH 7.4, 0.15 M NaCl, 0.005% v/v Surfactant P20). Each dilution was tested against recombinant Fzd Fc proteins immobilized onto a CM5 Biacore chip. The association and dissociation rates were measured and KD values determined using the Biaevaluation software program (Table 5, below).

[2] = target: T2, recombinant FZD1 Fc protein (Biacore) (Homo sapiens (Human), UniProt Q9UP38 70-321, limits assumed); assay: as above
T2 construct: also called Fzd Fc; not shown: Fc part, not described
T2 sequence (Q9UP38 70-321 limits assumed): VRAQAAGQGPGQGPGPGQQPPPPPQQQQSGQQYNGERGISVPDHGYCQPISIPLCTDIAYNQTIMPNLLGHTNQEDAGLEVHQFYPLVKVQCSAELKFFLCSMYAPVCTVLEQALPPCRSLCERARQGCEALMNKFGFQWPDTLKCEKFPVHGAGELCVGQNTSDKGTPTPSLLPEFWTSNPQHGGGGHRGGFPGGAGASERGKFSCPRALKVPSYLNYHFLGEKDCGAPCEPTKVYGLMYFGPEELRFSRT
Experimental: as §1

[3] = target: T3, recombinant FZD7 Fc protein (Biacore) (Homo sapiens (Human), UniProt O75084 33-255, limits assumed); assay: as above
T3 construct: also called Fzd Fc; not shown: Fc part, not described
Experimental: as §1

FZD5-Fc = target: T4, FZD5-Fc (Homo sapiens (Human), UniProt Q13467 27-233, limits assumed); assay: as above
T4 construct: also called recombinant FZD5 Fc protein; not shown: Fc part, not described
T4 sequence: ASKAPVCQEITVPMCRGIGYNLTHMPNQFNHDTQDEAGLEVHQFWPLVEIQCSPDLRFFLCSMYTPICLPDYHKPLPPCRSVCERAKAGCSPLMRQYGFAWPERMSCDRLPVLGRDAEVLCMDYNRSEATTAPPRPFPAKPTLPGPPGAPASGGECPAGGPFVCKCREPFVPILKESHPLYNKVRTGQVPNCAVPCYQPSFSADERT
Experimental: as §1

[4] = target: T5, human FZD9 expressed on transfected HEK293 cells (human, UniProt O00144 23-591); assay: flow cytometry, HEK293 cells transiently co-transfected with FZD expression vector and GFP
T5 sequence: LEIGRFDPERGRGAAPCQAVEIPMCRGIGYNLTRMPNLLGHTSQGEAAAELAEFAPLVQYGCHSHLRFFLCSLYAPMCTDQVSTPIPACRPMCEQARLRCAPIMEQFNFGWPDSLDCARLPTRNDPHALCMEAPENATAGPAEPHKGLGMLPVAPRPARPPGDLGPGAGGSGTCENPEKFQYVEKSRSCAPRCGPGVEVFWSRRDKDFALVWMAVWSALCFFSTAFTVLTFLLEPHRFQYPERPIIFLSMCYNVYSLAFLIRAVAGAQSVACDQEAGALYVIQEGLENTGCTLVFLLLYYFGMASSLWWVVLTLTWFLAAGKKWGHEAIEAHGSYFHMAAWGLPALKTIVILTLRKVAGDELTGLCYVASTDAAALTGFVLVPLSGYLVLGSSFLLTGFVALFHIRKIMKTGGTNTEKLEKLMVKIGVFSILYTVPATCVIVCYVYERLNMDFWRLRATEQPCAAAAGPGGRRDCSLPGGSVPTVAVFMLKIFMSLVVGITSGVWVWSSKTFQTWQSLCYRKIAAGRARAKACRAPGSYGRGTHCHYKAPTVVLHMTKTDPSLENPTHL
Experimental: (§2) To measure antibody binding to FZD by flow cytometry HEK293 cells were co-transfected with FZD expression vectors and the transfection marker GFP. Twenty-four to forty-eight hours post-transfection, cells were collected in suspension and incubated on ice with anti-FZD antibodies (10 μg/ml unless otherwise indicated) or control IgG to detect background antibody binding. The cells were washed and primary antibodies detected with Fc domain-specific secondary antibodies conjugated to a fluorescent chromophore (e.g. phycoerythrin conjugated anti-human IgG). Labeled cells were then analyzed by flow cytometry to identify anti-FZD antibodies that specifically recognize cell surface expression of FZD protein. Monoclonal antibodies 18R5 and 18R8 recognized FZD on transfected cells. As shown in FIG. 1 and FIG. 2, both 18R8 and 18R5 bind to multiple FZD including FZD1, FZD2, FZD5, FZD7, and FZD8. To examine the relative ability of 18R8 and 18R5 to bind to each FZD protein, titration analysis was conducted wherein the amount of antibody in the binding reaction was varied (FIG. 2).

[5] = target: T6, human FZD6 expressed on transfected HEK293 cells (human, UniProt O60353 19-706); assay: as above
T6 sequence: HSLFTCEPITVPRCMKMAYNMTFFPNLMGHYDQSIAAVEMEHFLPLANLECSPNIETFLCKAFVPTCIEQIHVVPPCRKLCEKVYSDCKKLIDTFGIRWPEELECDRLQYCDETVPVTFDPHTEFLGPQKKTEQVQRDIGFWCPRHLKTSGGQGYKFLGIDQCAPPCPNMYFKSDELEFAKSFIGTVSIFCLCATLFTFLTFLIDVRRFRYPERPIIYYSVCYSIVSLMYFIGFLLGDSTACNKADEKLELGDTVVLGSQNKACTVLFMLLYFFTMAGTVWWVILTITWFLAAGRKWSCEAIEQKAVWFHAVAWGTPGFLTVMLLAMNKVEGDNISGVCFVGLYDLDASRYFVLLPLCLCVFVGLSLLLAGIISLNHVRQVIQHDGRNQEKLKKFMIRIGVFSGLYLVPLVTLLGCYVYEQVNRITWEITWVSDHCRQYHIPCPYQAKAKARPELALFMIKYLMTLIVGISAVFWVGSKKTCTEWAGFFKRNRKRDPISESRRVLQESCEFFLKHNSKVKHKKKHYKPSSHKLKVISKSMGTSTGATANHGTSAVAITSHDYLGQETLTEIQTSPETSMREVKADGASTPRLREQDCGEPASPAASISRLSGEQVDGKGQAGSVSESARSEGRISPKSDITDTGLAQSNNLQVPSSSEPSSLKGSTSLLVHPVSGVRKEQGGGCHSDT
Experimental: as §2

T1 sequence (Q14332 24-250 limits assumed): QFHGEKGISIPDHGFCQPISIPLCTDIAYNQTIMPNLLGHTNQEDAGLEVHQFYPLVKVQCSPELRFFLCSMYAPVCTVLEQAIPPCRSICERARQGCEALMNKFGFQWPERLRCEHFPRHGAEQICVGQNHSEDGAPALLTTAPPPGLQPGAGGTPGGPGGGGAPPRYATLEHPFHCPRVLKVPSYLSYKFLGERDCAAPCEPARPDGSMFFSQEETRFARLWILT

B1: 18R8 IgG antibody (human IgG2, lambda) (antibody, V domains shown)
VH: EVQLVESGGGLVQPGGSLRLSCAASGFTFSHYTLSWVRQAPGKGLEWVSVISGDGSYTYYADSVKGRFTISSDNSKNTLYLQMNSLRAEDTAVYYCARNFIKYVFANWGQGTLVTVSS
VL: DIELTQPPSVSVAPGQTARISCSGDKLGKKYASWYQQKPGQAPVLVIYEKDNRPSGIPERFSGSNSGNTATLTISGTQAEDEADYYCSSFAGNSLEVFGGGTKLTVLG
notes: Expressed in CHO cells, protein A purified; also called 18R8 IgG2 antibody; anti-FZD antibody 18R8
Kd [1]: 6.2 nM | Kd [2]: 15.6 nM | Kd [3]: 5.2 nM | Kd (FZD5-Fc): 4.2 nM | binding result [4]: no binding (tested: 10 ug/ml) | binding result [5]: no binding (tested: 10 ug/ml)
